Legend:
[1] = biological target: purified tubulin dimer; test: SPR
[2] = biological target: purified tubulin dimer; test: SPR; VASH1 R222A/C169S; settings: complex
[3] = biological target: purified tubulin dimer; test: SPR; VASH1 K168E/C169S; settings: complex

Chain of VASH1-SVBP complex, VASH1 mutated at K168 (Q7L8A9 44-315, change not shown): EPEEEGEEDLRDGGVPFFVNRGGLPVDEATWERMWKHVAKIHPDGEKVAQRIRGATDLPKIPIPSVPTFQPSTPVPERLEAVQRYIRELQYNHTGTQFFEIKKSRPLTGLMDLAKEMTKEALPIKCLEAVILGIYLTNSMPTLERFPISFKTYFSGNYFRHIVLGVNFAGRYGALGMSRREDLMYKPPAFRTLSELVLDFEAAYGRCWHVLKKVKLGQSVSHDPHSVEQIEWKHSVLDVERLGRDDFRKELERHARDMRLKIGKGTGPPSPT
Chain of VASH1-SVBP complex, VASH1 mutated at K168 (Q8N300 whole entry, change not shown): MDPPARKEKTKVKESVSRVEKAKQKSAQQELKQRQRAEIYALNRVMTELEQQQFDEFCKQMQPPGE
Chain of VASH1-SVBP complex, VASH1 mutated at R222 (Q7L8A9 44-315, change not shown): as the sequence (Q7L8A9 44-315, change not shown) above
Chain of VASH1-SVBP complex, VASH1 mutated at R222 (Q8N300 whole entry, change not shown): as the sequence (Q8N300 whole entry, change not shown) above

Substance | Kd [1] | also measured
VASH1-SVBP complex, VASH1 mutated at R222 (from UniProt Q7L8A9 44-315; Q8N300 1-66) | – | Kd [2]: 1400 nM
VASH1 R222E/R223E/C169S-SVBP | 1310 nM | –
VASH1 C169A-SVBP | 990 nM | –
VASH1-SVBP complex, VASH1 mutated at K168 (from UniProt Q7L8A9 44-315; Q8N300 1-66) | – | Kd [3]: 1140 nM

The remaining substances from weak to strong by Kd [1], led by results:

Kd [1] | Substance | also measured
750 nM | VASH1 H204A/C169S-SVBP | –
570 nM | VASH1 S221A/C169S-SVBP | –
470 nM | VASH1 C169S-SVBP | –
